As usually defined, the Kd is the concentration at which binding is half-saturated. Low values mean a tighter complex, high ones a looser complex. By stoichiometry N is commonly meant a count of units in the complex or per binding partner.

Among the data in article PMC3573685 are Kd and stoichiometry N values, retold here.

Read-outs that look alike come from different tables or passages of the source.

Assay [1] concerns the target Aquifex aeolicus TatC (Aquifex aeolicus). The assay is described as follows: ITC.
Assay [2] has the same target.

Tat signal peptide of the E. coli protein SufI, sequence (P26648 1-27 limits assumed): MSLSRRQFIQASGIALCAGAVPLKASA

Consider “Tat signal peptide of the E. coli protein SufI”, for which, in assay [1], the dissociation constant (Kd) is 3000 nM and the stoichiometry N turned out to be 1. In turn, Aquifex aeolicus TatC (natural protein) showed a stoichiometry N in assay [2] of 2.
